± gives the standard deviation of the averaged measurements.
B1: library; numbered along this chain (parent)
chain: MNIQIGELAKRTACPVVTIRFYEQEGLLPPPGRSRGNFRLYGEEHVERLQFIRHCRSLDMPLSDVRTLLSYRKRPDQDCGEVNMLLDEHIRQVESRIGALLELKHHLVELREACSGARPAQSCGILQGLSDCVCDTRGTTAHPSD

Tests used:
[1] = variants of: B1; assay: sfGFP reporter fluorescence (15 h) (µM FITC); higher = higher leak; settings: library round: Round 0; ligand: none
Procedure: (§1)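 Cell-free (BL21 Star DE3 extract, PANOx-SP) biosensing: 1 µL Echo-assembled reactions with linear PbrR variant templates (5 nM) and pPbrR-sfGFP reporter, with 1 µM Pb (lead chloride), 30 µM Zn (zinc acetate) or no ligand; endpoint sfGFP fluorescence after 15 h at 30 °C, calibrated as µM FITC. Round 0 library (alanine scan, site saturation, combinatorial) of PbrR from Cupriavidus metallidurans; 2 biological replicates.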

[2] = variants of: B1; assay: sfGFP reporter fluorescence (15 h) (µM FITC); higher = stronger transcriptional activation; settings: library round: Round 0
Procedure: as §1

Variant	sfGFP reporter fluorescence [1]	sfGFP reporter fluorescence ([2]; ligand: 1 µM Pb)	sfGFP reporter fluorescence ([2]; ligand: 30 µM Zn)
G6W	0.061 ± 0.0023	0.06011 ± 0.00052	0.06212 ± 0.00026
G6K	0.0625 ± 0.0013	0.06414 ± 0.00052	0.222 ± 0.0031
G6F	0.0592 ± 0.0018	0.06029 ± 0.00026	0.0629 ± 0.00078
G6Y	0.0603 ± 0.0034	0.0608 ± 0.001	0.066
G6I	0.05846 ± 0.00026	0.0585 ± 0.0023	0.0618 ± 0.0018
G6A	0.0504 ± 0.0018	0.0491 ± 0.00052	0.09016 ± 0.00052
G6C	0.0601 ± 0.0026	0.05882 ± 0.00026	0.0621 ± 0.0018
G6P	0.061 ± 0.0013	0.0601 ± 0.0015	0.06084 ± 0.00052
G6D	0.06377 ± 0.00052	0.06047 ± 0.00052	0.0621 ± 0.00078
G6S	0.0608 ± 0.0021	0.06853 ± 0.00052	0.412 ± 0.027
G6T	0.0594 ± 0.0021	0.0608 ± 0.0015	0.0799 ± 0.0047
G6N	0.0607 ± 0.00078	0.0599 ± 0.0013	0.0773 ± 0.0015
G6H	0.06267 ± 0.00052	0.0603 ± 0.00078	0.0698 ± 0.0029
G6V	0.0618 ± 0.0013	0.0618 ± 0.0013	0.0651 ± 0.0013
G6E	0.0636 ± 0.0034	0.0605 ± 0.0015	0.0625 ± 0.0034
G6L	0.0607 ± 0.00078	0.06157 ± 0.00052	0.0682 ± 0.001
G6M	0.0603 ± 0.0013	0.0586 ± 0.001	0.0654 ± 0.0034
G6Q	0.0592 ± 0.0023	0.05754 ± 0.00052	0.0746 ± 0.0039
C14A	0.0687 ± 0.0018	0.0726 ± 0.0015	0.317 ± 0.01
T12A	0.0564 ± 0.0026	0.0733 ± 0.0015	0.611 ± 0.019
G26A	0.06304 ± 0.00052	0.0724 ± 0.0023	0.512 ± 0.033
I5A	0.0515 ± 0.0039	0.05186 ± 0.00026	0.0817 ± 0.0036
I3Y	0.0612 ± 0.0021	0.06744 ± 0.00052	0.977 ± 0.061

Variant	sfGFP reporter fluorescence [1]	sfGFP reporter fluorescence ([2]; ligand: 1 µM Pb)	sfGFP reporter fluorescence ([2]; ligand: 30 µM Zn)
I3P	0.0592 ± 0.0018	0.0583 ± 0.0036	0.0546 ± 0.0026
I3S	0.05864 ± 0.00052	0.0605 ± 0.0036	0.2084 ± 0.0013
I3W	0.05919 ± 0.00026	0.0766 ± 0.001	0.957 ± 0.056
I3V	0.0619 ± 0.001	0.124 ± 0.0044	1.32 ± 0.025
I3Q	0.0548 ± 0.0029	0.0671 ± 0.0026	0.336 ± 0.0075
I3N	0.0599 ± 0.0013	0.0579 ± 0.0021	0.1142 ± 0.00026
I3T	0.0597 ± 0.001	0.0667 ± 0.0047	0.331 ± 0.011
I3R	0.0605	0.0792	0.376 ± 0.024
L27W	0.0616 ± 0.0036	0.0623	0.0638
L27Y	0.066	0.0792 ± 0.0021	0.254 ± 0.011
L27V	0.0625 ± 0.00078	0.0717 ± 0.00078	0.349 ± 0.0044
L27Q	0.06432 ± 0.00026	0.0618 ± 0.0013	0.06285 ± 0.00026
L27I	0.0596 ± 0.00078	0.0803 ± 0.0015	0.555 ± 0.033
L27C	0.06285 ± 0.00026	0.0641 ± 0.001	0.142 ± 0.0023
L27R	0.0656 ± 0.0026	0.0658 ± 0.0013	0.0665 ± 0.00078
L27A	0.0632 ± 0.00078	0.05827 ± 0.00052	0.0733
L27D	0.0627 ± 0.0015	0.0603 ± 0.0018	0.0574 ± 0.0018
L27S	0.0623 ± 0.00052	0.0621 ± 0.00078	0.0647 ± 0.0029
L27G	0.0608 ± 0.001	0.0597 ± 0.0015	0.0649 ± 0.0036
L27N	0.06322 ± 0.00026	0.0616 ± 0.0031	0.0601
L27P	0.0607 ± 0.0034	0.0612 ± 0.001	0.0656 ± 0.0026
L27F	0.0673 ± 0.0023	0.104 ± 0.0029	0.493 ± 0.035
L27E	0.0603 ± 0.0013	0.0616 ± 0.0015	0.0577 ± 0.00078

Variant	sfGFP reporter fluorescence [1]	sfGFP reporter fluorescence ([2]; ligand: 1 µM Pb)	sfGFP reporter fluorescence ([2]; ligand: 30 µM Zn)
L27T	0.0621 ± 0.0013	0.06029 ± 0.00026	0.0594 ± 0.0026
L27M	0.0643 ± 0.0018	0.0971 ± 0.0036	0.743 ± 0.04
L27K	0.064 ± 0.0013	0.06084 ± 0.00052	0.0614 ± 0.0018
L27H	0.0623 ± 0.0015	0.06322 ± 0.00026	0.0762 ± 0.001
P15G	0.0643 ± 0.0018	0.085 ± 0.0047	0.447 ± 0.028
P15R	0.06341 ± 0.00052	0.0876 ± 0.0021	1.04 ± 0.064
P15H	0.0667 ± 0.001	0.092 ± 0.0052	0.706 ± 0.044
P15W	0.061 ± 0.0013	0.06139 ± 0.00026	0.06634 ± 0.00052
P15S	0.0621 ± 0.0029	0.0883 ± 0.0052	0.802 ± 0.01
P15E	0.0718 ± 0.001	0.088 ± 0.0021	0.4297 ± 0.0023
P15K	0.0634	0.0958 ± 0.01	1.34 ± 0.047
P15M	0.0625 ± 0.0018	0.0795 ± 0.001	0.637 ± 0.02
P15L	0.0667	0.0938 ± 0.0036	1.06 ± 0.078
P15V	0.0757 ± 0.00078	0.07385 ± 0.00026	0.212 ± 0.018
P15N	0.0629 ± 0.0034	0.0859 ± 0.0018	0.885 ± 0.022
P15C	0.0656 ± 0.0052	0.0826 ± 0.0018	0.5684 ± 0.001
P15A	0.0674 ± 0.0042	0.0953 ± 0.0088	0.691 ± 0.02
P15Q	0.0654 ± 0.00078	0.0903 ± 0.0029	0.9395 ± 0.0039
P15D	0.066 ± 0.0057	0.0689 ± 0.0021	0.286 ± 0.008
P15I	0.06047 ± 0.00052	0.0612 ± 0.0015	0.288 ± 0.026
P15T	0.0632 ± 0.00078	0.1006 ± 0.00078	0.859 ± 0.058
P15Y	0.0652 ± 0.0021	0.0684 ± 0.0034	0.368 ± 0.0021
P15F	0.0662 ± 0.0018	0.0702 ± 0.0049	0.256 ± 0.013

Variant	sfGFP reporter fluorescence [1]	sfGFP reporter fluorescence ([2]; ligand: 1 µM Pb)	sfGFP reporter fluorescence ([2]; ligand: 30 µM Zn)
E23A	0.0608 ± 0.0015	0.05827 ± 0.00052	0.104 ± 0.0026
Y22F	0.0629 ± 0.0029	0.0662 ± 0.00078	0.173 ± 0.0039
Y22M	0.0638 ± 0.001	0.0612 ± 0.0031	0.064 ± 0.0013
Y22D	0.06066 ± 0.00026	0.0618 ± 0.0018	0.06011 ± 0.00052
Y22I	0.0605 ± 0.0015	0.0583 ± 0.0015	0.0564 ± 0.0036
Y22E	0.06157 ± 0.00052	0.0621 ± 0.0013	0.06011 ± 0.00052
Y22H	0.063 ± 0.0015	0.06249 ± 0.00026	0.0651 ± 0.0018
Y22V	0.06359 ± 0.00026	0.0614 ± 0.00078	0.0641 ± 0.0021
Y22T	0.05937 ± 0.00052	0.06084 ± 0.00052	0.06121 ± 0.00052
Y22K	0.0625 ± 0.0018	0.0627 ± 0.001	0.0614 ± 0.0029
Y22N	0.0619 ± 0.0031	0.0607 ± 0.0029	0.0614 ± 0.0023
Y22L	0.0614 ± 0.00078	0.0597 ± 0.0015	0.07183 ± 0.00052
Y22R	0.0678 ± 0.00052	0.06579 ± 0.00026	0.0689 ± 0.0031
Y22P	0.0618 ± 0.0018	0.06066 ± 0.00026	0.0621 ± 0.0023
Y22Q	0.0627 ± 0.001	0.0612	0.0607 ± 0.0023
Y22W	0.0658 ± 0.0029	0.142 ± 0.00026	2.1 ± 0.13
Y22C	0.0614 ± 0.0044	0.0623 ± 0.00052	0.05919 ± 0.00026
Y22A	0.06029 ± 0.00026	0.0557 ± 0.0021	0.0634 ± 0.001
Y22S	0.0636 ± 0.0013	0.06084 ± 0.00052	0.0619 ± 0.001
Y22G	0.0594 ± 0.0031	0.05846 ± 0.00026	0.0605 ± 0.0015
